Measurements published in patent US20250262210A1 (TRUSTEES OF COLUMBIA UNIVERSITY IN THE CITY OF NEW YORK, published 2025).

Columns and labels:
Assay in all cases: IP/MS, LZTR1 wild type-FLAG, U87
[1] = biological target: T1, KIAA1468 (human, UniProt Q9P260 2-1216, limits assumed)
T1 sequence (looked up): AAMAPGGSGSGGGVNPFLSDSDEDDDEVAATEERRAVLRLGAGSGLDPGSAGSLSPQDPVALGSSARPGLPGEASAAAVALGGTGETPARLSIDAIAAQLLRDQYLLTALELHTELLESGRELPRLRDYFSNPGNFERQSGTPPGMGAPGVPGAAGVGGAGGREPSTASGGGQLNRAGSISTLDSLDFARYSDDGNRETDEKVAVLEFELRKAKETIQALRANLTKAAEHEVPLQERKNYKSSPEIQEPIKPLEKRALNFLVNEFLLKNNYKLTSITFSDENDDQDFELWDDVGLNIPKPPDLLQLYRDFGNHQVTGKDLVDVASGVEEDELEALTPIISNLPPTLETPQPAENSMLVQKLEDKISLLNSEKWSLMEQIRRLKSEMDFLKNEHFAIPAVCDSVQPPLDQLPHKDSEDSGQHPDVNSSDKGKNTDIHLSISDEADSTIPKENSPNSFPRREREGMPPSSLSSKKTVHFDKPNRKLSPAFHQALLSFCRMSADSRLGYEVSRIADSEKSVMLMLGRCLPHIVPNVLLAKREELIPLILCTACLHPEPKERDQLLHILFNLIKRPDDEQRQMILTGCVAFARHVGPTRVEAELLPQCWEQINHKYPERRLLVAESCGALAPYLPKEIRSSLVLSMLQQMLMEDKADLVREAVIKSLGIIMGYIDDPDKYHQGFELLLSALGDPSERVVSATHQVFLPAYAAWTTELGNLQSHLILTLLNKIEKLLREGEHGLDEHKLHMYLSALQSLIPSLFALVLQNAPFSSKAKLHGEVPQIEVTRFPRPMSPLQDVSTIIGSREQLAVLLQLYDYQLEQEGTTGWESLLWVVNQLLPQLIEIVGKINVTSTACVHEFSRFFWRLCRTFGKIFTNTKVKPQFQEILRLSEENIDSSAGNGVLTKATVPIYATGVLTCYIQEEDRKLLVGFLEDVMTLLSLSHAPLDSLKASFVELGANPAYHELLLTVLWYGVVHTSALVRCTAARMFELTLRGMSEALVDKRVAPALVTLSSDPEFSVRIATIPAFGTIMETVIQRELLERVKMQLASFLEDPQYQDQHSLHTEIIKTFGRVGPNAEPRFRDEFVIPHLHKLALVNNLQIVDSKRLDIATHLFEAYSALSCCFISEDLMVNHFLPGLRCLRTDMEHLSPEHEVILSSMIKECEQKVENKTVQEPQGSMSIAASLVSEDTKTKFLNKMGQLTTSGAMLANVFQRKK
Summary of the method: (§1)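 Gel slices were reduced with 5 mM DTT, alkylated with 11 mM IAA and digested overnight at 37° C. with trypsin. Peptides were analysed on an Orbitrap Fusion Tribrid by LC-MS/MS.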

[2] = biological target: T2, LONP2 (human, UniProt Q86WA8 2-852, limits assumed)
T2 sequence (looked up): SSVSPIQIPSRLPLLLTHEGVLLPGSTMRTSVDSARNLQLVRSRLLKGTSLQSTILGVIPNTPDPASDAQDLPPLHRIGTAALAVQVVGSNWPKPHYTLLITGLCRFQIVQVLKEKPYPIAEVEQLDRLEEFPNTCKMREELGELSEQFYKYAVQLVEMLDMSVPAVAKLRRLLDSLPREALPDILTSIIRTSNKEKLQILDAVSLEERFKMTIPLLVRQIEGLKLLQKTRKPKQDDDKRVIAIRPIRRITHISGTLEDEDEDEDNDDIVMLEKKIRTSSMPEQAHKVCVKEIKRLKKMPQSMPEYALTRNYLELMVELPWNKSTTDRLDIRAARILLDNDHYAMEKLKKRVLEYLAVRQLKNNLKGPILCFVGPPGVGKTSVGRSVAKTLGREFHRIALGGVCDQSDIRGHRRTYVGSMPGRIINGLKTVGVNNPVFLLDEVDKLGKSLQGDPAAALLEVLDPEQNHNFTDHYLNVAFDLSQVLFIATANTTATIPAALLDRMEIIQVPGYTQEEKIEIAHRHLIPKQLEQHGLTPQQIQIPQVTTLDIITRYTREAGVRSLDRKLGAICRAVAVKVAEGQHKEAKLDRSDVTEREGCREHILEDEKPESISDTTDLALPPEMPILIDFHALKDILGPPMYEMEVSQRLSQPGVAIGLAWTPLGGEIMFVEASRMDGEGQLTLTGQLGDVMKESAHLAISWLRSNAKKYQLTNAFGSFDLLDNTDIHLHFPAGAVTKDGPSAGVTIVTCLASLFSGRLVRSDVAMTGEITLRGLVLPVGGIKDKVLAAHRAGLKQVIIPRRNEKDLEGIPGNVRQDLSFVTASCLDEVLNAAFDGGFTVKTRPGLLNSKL
Summary of the method: as §1

[3] = biological target: MYO10 (human, UniProt Q9HD67 1-2058, limits assumed)
Summary of the method: as §1

Measured: binding result

Sequence of MYO10 (Q9HD67 whole entry): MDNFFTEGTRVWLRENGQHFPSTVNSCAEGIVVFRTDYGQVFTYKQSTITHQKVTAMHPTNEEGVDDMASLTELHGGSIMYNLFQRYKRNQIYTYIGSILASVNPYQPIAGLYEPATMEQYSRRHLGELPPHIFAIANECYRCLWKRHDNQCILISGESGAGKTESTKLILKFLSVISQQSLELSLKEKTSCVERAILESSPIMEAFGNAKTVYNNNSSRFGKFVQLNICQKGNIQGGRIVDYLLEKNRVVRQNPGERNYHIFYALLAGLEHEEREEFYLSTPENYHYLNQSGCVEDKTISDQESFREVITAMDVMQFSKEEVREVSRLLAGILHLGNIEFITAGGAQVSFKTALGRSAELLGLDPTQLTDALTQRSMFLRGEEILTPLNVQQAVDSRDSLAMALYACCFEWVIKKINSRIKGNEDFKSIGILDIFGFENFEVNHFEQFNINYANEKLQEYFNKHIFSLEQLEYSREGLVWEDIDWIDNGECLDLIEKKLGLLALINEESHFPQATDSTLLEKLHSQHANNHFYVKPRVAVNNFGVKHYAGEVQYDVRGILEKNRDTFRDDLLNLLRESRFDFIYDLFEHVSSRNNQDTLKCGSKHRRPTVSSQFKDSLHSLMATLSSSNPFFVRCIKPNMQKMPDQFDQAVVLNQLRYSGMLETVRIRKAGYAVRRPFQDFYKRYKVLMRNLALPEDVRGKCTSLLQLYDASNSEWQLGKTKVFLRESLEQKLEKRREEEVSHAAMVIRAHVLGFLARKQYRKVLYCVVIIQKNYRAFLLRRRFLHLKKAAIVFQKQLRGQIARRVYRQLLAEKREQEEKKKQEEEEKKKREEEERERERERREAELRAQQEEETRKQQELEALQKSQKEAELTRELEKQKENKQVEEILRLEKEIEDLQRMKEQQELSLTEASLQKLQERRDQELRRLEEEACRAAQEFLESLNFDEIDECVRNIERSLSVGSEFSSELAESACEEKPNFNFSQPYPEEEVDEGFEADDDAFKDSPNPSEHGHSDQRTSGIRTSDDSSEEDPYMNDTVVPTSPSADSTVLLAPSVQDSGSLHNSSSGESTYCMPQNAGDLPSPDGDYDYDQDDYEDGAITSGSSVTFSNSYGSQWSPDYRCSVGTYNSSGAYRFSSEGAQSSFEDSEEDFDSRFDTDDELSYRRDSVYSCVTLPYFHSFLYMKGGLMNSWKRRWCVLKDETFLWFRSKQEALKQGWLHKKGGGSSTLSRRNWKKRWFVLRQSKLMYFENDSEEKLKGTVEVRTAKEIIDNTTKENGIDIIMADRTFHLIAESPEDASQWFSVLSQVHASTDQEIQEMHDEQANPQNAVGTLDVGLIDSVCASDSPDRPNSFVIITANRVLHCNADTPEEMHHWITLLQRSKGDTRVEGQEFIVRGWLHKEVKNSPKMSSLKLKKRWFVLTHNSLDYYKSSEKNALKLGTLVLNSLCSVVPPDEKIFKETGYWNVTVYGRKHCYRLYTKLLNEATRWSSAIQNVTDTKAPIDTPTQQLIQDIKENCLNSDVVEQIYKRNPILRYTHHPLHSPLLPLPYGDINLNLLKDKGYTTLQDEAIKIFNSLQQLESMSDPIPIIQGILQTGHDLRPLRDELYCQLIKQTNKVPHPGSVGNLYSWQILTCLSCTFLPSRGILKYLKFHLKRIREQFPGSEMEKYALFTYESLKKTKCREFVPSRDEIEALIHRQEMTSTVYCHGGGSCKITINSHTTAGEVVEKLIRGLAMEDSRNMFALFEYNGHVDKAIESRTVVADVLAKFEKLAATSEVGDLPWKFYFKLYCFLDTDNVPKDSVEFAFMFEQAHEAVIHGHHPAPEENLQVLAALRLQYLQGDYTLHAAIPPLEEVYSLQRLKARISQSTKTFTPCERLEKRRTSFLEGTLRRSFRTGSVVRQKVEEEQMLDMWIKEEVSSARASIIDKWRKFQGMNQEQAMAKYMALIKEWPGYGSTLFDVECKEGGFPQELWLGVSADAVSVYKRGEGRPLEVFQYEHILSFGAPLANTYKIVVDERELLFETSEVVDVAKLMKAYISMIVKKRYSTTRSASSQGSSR

B1: LZTR1-FLAG (other, human, UniProt Q8N653 1-840, looked up)
chain: MAGPGSTGGQIGAAALAGGARSKVAPSVDFDHSCSDSVEYLTLNFGPFETVHRWRRLPPCDEFVGARRSKHTVVAYKDAIYVFGGDNGKTMLNDLLRFDVKDCSWCRAFTTGTPPAPRYHHSAVVYGSSMFVFGGYTGDIYSNSNLKNKNDLFEYKFATGQWTEWKIEGRLPVARSAHGATVYSDKLWIFAGYDGNARLNDMWTIGLQDRELTCWEEVAQSGEIPPSCCNFPVAVCRDKMFVFSGQSGAKITNNLFQFEFKDKTWTRIPTEHLLRGSPPPPQRRYGHTMVAFDRHLYVFGGAADNTLPNELHCYDVDFQTWEVVQPSSDSEVGGAEVPERACASEEVPTLTYEERVGFKKSRDVFGLDFGTTSAKQPTQPASELPSGRLFHAAAVISDAMYIFGGTVDNNIRSGEMYRFQFSCYPKCTLHEDYGRLWESRQFCDVEFVLGEKEECVQGHVAIVTARSRWLRRKITQARERLAQKLEQEAAPVPREAPGVAAGGARPPLLHVAIREAEARPFEVLMQFLYTDKIKYPRKGHVEDVLLIMDVYKLALSFQLCRLEQLCRQYIEASVDLQNVLVVCESAARLQLSQLKEHCLNFVVKESHFNQVIMMKEFERLSSPLIVEIVRRKQQPPPRTPLDQPVDIGTSLIQDMKAYLEGAGAEFCDITLLLDGHPRPAHKAILAARSSYFEAMFRSFMPEDGQVNISIGEMVPSRQAFESMLRYIYYGEVNMPPEDSLYLFAAPYYYGFYNNRLQAYCKQNLEMNVTVQNVLQILEAADKTQALDMKRHCLHIIVHQFTKVSKLPTLRSLSQQLLLDIIDSLASHISDKQCAELGADI
notes: Expressed in HEK 293T, HeLa or U87 cells; used as cell lysate; also called LZTR1 wild type-FLAG; LZTR1 WT; not shown: FLAG tag at the C-terminus
binds: all assays above
